These are literature values, as cited in publication PMC10886550.

The target in one series is GyrB (Escherichia coli) (UniProt P0AES6).
The target in series [1] is DNA gyrase (Escherichia coli) (UniProt P0AES4).
Sequence of UniProt P0AES4 (P0AES4 2-875): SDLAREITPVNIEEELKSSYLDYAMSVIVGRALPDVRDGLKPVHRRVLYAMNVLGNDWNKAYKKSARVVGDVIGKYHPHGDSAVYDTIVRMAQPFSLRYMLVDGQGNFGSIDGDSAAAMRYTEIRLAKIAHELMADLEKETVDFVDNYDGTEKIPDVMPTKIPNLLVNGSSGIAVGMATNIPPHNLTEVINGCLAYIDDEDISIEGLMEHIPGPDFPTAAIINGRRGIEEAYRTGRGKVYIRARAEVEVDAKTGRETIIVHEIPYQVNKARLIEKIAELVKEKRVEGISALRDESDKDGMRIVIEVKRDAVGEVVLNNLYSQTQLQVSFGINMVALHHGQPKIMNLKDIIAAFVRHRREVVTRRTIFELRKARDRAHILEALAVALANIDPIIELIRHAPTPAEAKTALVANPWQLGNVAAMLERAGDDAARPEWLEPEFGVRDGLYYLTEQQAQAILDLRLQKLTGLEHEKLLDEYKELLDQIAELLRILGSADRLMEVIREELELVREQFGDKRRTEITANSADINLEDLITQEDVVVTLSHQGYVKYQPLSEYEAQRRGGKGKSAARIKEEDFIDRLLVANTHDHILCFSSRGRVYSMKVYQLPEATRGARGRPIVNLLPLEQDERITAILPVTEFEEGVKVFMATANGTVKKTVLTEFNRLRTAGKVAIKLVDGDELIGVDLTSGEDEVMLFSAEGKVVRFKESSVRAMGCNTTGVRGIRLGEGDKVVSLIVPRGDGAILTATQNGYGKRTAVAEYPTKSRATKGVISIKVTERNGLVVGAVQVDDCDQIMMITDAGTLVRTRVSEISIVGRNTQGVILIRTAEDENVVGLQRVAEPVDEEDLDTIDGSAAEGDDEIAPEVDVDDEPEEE

For YacG (from UniProt P0A8H8), the Kd in the series with GyrB (Escherichia coli) is 350 nM. For “GyrI peptide 33-48 (from UniProt P33012)”, the Kd in series [1] was 26 µM.

A word on the Kd: it is the free concentration of one partner at which half of the binding sites on the other are occupied at equilibrium, for simple one-to-one binding.
